Consider ten molecules from PMC8087788, “Parallel G-quadruplexes recruit the HSV-1 transcription factor ICP4 to promote viral transcription in herpes virus-infected human cells”.

Data set [1] deals with T1, ICP4 (nuclear extract) (HSV-1 strain F) (UniProt P08392).
T1 sequence: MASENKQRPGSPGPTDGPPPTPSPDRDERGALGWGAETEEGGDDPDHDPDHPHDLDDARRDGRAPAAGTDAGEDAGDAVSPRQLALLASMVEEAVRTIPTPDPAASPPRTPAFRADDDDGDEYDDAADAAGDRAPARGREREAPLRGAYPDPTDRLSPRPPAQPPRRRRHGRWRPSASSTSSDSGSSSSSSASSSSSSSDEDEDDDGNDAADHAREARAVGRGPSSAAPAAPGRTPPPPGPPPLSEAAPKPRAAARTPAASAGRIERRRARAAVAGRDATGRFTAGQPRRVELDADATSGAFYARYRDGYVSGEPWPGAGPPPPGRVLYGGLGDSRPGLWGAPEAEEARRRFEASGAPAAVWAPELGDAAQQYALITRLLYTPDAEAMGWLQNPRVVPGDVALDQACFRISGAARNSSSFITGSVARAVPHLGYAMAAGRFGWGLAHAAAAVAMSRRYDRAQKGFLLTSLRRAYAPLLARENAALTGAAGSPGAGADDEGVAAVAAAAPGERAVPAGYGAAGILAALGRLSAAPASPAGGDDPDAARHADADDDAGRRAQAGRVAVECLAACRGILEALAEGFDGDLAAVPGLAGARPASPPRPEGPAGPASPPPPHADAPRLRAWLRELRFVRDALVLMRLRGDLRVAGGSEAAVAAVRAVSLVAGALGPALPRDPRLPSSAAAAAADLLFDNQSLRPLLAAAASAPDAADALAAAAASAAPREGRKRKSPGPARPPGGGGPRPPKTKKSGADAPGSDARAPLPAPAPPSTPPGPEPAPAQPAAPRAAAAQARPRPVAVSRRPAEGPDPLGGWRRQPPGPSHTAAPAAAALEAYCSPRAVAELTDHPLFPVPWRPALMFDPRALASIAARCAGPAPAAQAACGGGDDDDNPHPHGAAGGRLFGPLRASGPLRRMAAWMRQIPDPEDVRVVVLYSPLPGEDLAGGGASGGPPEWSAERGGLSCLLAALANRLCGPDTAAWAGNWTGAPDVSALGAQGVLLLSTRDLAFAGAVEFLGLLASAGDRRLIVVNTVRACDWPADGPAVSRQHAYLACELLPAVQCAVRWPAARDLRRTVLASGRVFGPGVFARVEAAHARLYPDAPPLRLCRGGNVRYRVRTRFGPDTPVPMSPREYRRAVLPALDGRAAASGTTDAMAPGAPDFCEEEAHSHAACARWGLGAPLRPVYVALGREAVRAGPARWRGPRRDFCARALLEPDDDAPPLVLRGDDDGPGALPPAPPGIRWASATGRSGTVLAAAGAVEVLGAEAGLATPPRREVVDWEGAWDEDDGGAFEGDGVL
As to the kind of experiment: pull-down. The note with it: XL pull-down: oligos folded in 20 mM PB pH 7.4, 80 mM KCl, 4 C, 45 min, wash 50 mM Tris-HCl pH 7.5, 150 mM NaCl; ICP4 EMSA: 20 mM Tris-HCl pH 8, 25 mM KCl …. For orientation: A gel shift assay detects complexes by their altered migration in electrophoresis.

Data set [2] addresses T2, ufICP4 (ultrafiltrated ICP4) (HSV-1 strain F, UniProt P08392 1-1298).
T2 sequence: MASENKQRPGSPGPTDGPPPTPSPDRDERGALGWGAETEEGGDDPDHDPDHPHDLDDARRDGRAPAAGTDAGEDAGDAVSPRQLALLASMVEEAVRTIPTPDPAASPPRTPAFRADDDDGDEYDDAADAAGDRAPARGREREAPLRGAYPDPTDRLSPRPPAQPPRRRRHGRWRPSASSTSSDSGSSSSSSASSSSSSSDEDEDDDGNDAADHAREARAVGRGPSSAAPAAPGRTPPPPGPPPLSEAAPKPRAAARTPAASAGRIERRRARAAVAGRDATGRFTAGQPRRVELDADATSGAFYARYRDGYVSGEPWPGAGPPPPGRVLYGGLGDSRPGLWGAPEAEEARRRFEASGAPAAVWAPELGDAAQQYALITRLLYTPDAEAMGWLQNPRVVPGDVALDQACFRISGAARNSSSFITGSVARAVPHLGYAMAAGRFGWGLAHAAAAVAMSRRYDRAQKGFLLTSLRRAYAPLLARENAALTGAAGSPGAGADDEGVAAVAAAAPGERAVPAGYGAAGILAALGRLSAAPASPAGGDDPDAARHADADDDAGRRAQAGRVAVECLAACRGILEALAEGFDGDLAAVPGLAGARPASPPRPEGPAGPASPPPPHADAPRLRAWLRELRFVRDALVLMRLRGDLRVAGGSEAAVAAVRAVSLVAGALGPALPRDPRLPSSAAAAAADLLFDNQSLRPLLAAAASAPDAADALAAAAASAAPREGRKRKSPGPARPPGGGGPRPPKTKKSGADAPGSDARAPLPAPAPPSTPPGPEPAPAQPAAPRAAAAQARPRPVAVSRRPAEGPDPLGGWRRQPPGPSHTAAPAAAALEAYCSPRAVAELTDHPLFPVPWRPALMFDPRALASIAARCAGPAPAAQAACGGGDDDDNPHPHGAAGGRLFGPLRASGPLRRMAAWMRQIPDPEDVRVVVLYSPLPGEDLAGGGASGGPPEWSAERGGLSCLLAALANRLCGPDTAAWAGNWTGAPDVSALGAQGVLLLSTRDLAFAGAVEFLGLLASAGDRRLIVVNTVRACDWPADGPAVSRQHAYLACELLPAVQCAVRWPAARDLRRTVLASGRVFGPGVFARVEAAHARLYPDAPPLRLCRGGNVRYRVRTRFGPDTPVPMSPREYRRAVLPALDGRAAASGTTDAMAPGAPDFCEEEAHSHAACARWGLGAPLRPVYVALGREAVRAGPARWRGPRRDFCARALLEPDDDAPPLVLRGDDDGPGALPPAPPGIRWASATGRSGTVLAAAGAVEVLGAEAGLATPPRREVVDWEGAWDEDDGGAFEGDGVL
Nature of the data set: EMSA; 5-10x ufICP4; XL pull-down: oligos folded in 20 mM PB pH 7.4, 80 mM KCl, 4 C, 45 min, wash 50 mM Tris-HCl pH 7.5, 150 mM NaCl; ICP4 EMSA: 20 mM Tris-HCl pH 8, 25 mM KCl, 1.5. The note with it: protein: native, chain copies: 2, label: 5' FAM.

For data set [3], the target named is T3, ICP8 (HSV-1, UniProt P04296 1-1196). Nature of the data set: EMSA; 0-3 ug ICP8; Na+ and K+ buffers; XL pull-down: oligos folded in 20 mM PB pH 7.4, 80 mM KCl, 4 C, 45 min, wash 50 mM Tris-HCl pH 7.5, 150 mM NaCl; ICP4 EMSA: 20 mM Tris-HCl pH 8, 25 mM KCl, 1.5. The following applies: protein: recombinant; tags: GST; label: 32P (Methods) / 33P; G4.
For data set [4], the target named is T3, ICP8. Nature of the data set: EMSA; 0-3 ug ICP8; XL pull-down: oligos folded in 20 mM PB pH 7.4, 80 mM KCl, 4 C, 45 min, wash 50 mM Tris-HCl pH 7.5, 150 mM NaCl; ICP4 EMSA: 20 mM Tris-HCl pH 8, 25 mM KCl, 1.5. The following applies: protein: recombinant; tags: GST; label: 32P (Methods) / 33P.

T3 sequence (P04296 whole entry): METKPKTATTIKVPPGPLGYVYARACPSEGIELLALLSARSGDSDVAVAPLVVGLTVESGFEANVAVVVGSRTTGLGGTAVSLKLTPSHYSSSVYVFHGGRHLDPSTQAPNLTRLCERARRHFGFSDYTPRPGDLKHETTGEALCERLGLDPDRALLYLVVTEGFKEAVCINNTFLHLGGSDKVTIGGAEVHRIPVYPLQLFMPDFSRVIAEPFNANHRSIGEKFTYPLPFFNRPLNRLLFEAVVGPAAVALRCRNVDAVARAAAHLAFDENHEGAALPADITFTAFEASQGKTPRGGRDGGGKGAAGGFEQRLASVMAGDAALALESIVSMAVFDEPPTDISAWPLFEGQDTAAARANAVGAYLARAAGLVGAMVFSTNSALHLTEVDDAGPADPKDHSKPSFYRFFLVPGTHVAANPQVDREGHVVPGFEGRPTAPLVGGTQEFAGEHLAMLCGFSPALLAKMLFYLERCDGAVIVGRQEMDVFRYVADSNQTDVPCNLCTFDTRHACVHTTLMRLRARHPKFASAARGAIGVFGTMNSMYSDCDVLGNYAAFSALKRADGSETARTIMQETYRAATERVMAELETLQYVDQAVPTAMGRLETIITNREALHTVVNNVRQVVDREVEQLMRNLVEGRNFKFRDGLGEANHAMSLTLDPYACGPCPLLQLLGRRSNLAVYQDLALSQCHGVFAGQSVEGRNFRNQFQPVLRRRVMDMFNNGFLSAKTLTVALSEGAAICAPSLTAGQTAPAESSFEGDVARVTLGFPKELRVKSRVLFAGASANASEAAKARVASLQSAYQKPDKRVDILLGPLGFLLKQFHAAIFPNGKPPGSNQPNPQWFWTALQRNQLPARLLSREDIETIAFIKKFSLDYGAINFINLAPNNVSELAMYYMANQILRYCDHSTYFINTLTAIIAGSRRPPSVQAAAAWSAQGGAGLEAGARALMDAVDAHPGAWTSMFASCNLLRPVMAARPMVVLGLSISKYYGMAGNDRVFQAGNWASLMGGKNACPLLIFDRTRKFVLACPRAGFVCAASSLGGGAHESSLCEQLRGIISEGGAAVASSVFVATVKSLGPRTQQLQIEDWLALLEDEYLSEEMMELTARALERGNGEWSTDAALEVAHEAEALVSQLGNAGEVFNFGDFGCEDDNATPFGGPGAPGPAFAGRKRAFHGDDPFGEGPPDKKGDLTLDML

Molecule “TTTTTGGGGGCGAGGGGCGGGAGGGGGCGAGGGGGGGGGCGAGGGGCGGGAGGGGGCGAGGGG [B-un2L2]” yielded a binding signal in data set [1] of 2.5 fold vs IE3.
For “TTTTTCCGATCGTCCACACGGAGC (double strand) [B-IE3 (ICP4 consensus; IE-CS)]”, the binding signal (fold vs IE3 (reference)) in data set [1] came out at 1.
For TTTTTGGGGAGGGTGGGGAGGGTGGGGAAGG [B-myc], the binding signal in data set [1] was found to be 2.5 fold vs IE3.
Still for that read-out and setting: next, CGGGGCGGGCCGGGGGCGGGG [B-VEGF]: 2.5 fold vs IE3.
Regarding GGGGGCGAGGGGCGGGAGGGGGCGAGGGG (structured_DNA) [F-un2], the binding result in data set [2] (G4) is “binds”.
In the case of GGGGGCGAGGGGCGGGAGGGGGCGAGGGG (structured_DNA) [un2 (radiolabelled)], the binding result with ICP8 [3] is on record as “no binding”.
With TTTTTTTTTTTTTTTTTTTTTTTTTTTTTT (ssDNA) [PolyT (T30)], the binding result with ICP8 [4] is “binds”.
On to GGGTTAGGGTTAGGGTTAGGG (structured_DNA) [hTel (radiolabelled)], for which the binding result with ICP8 [3] is “no binding”.
For GGAGTCGTGTCGCGTGTCGAGCGTGTGTAGTGG (ssDNA) [F-G-rich-scrambled], in data set [2] (unfolded), the binding result is given as “no binding”.
Turning to GGGAGGCGTGGCCTGGGCGGGACTGGGG (structured_DNA) [LTR-III (radiolabelled)], the binding result with ICP8 [3] is “no binding”.
